{"source": "paper PMC5472308", "about": "“Characterization of the regulation of a plant polysaccharide utilization operon and its role in biofilm formation in Bacillus subtilis” (PLoS ONE, 2017)", "target": "His6-GanR (Bacillus subtilis 3610) (UniProt O07008)", "sequence (O07008 whole entry)": "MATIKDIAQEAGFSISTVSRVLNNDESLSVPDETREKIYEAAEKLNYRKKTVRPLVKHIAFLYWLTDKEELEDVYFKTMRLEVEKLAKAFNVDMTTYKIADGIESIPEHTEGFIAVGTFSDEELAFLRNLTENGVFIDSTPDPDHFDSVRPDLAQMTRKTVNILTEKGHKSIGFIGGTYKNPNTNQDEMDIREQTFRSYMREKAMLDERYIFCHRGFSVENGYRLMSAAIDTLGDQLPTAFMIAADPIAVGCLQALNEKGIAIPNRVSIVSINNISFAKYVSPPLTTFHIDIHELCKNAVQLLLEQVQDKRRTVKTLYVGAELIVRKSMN", "assay": "EMSA", "settings": "10 mM Tris-HCl (pH not stated), 50 mM NaCl, 1 mM EDTA, 5% glycerol, 1 mM DTT, 10 ug/ml BSA, on ice 20 min; Cy3 probes with poly-dIdC, gel 0.5X TBE at 4 C"}
{"sequence": "GTACGAATTCCCGCGCTGTATTCCGGCTTGAGAACAGCTTTTGAAAAGTAAGCTGTTTGGGAAAGTTAAATAATCTTTAATTCGAGATGTTTTACTTGAAAGTAAATTTCTTTGTCTCTATAATAAAGTCTAAGAGAGACAGAATAATCATTATGCATCTGTATGATAATAATTGATGTGTGATGGATCCGTAC (double strand) [PyvaB (yvaB promoter)]", "values": [{"measurement": "binding", "result": "no binding"}]}
